According to patent publication US12679878B2, “CRF2 receptor agonists and their use in therapy” (SANOFI, priority 2020, dated 2026):
Starred links: 1 amine or outer side, 2 acyl side, 3 side chain; linkers in the order of their positions; H or OH if unused. Non-standard residues stand in square brackets, D forms with d. Groups on a side chain read outwards from the residue. No end group written: not given here. *: point of attachment. C18 diacid = O=C(O)CCCCCCCCCCCCCCCCC(=O)*; γGlu = O=C(O)[C@H](CCC(=O)[*:2])N[*:1]; AEEA = NCCOCCOCC(=O)O; Aib = CC(C)(N)C(=O)O

B1: SEQ ID NO: 119 (peptide)
peptide: IVLSLDVPIKLK([AEEA-AEEA-γGlu-C18 diacid])QILLKQERQKK[Aib]RQKAEKNKQILAQV-NH2
modifications: N-terminus assumed
SMILES: CC[C@H](C)[C@H](N)C(=O)N[C@H](C(=O)N[C@@H](CC(C)C)C(=O)N[C@@H](CO)C(=O)N[C@@H](CC(C)C)C(=O)N[C@@H](CC(=O)O)C(=O)N[C@H](C(=O)N1CCC[C@H]1C(=O)N[C@H](C(=O)N[C@@H](CCCCN)C(=O)N[C@@H](CC(C)C)C(=O)N[C@@H](CCCCNC(=O)COCCOCCNC(=O)COCCOCCNC(=O)CC[C@H](NC(=O)CCCCCCCCCCCCCCCCC(=O)O)C(=O)O)C(=O)N[C@@H](CCC(N)=O)C(=O)N[C@H](C(=O)N[C@@H](CC(C)C)C(=O)N[C@@H](CC(C)C)C(=O)N[C@@H](CCCCN)C(=O)N[C@@H](CCC(N)=O)C(=O)N[C@@H](CCC(=O)O)C(=O)N[C@@H](CCCNC(=N)N)C(=O)N[C@@H](CCC(N)=O)C(=O)N[C@@H](CCCCN)C(=O)N[C@@H](CCCCN)C(=O)NC(C)(C)C(=O)N[C@@H](CCCNC(=N)N)C(=O)N[C@@H](CCC(N)=O)C(=O)N[C@@H](CCCCN)C(=O)N[C@@H](C)C(=O)N[C@@H](CCC(=O)O)C(=O)N[C@@H](CCCCN)C(=O)N[C@@H](CC(N)=O)C(=O)N[C@@H](CCCCN)C(=O)N[C@@H](CCC(N)=O)C(=O)N[C@H](C(=O)N[C@@H](CC(C)C)C(=O)N[C@@H](C)C(=O)N[C@@H](CCC(N)=O)C(=O)N[C@H](C(N)=O)C(C)C)[C@@H](C)CC)[C@@H](C)CC)[C@@H](C)CC)C(C)C)C(C)C
B2: SEQ ID NO: 120 (peptide)
peptide: IVLSLDVPIKLK([AEEA-AEEA-γGlu-C18 diacid])QILLKQERQKKQREQAEKNKQILEQV-NH2
modifications: N-terminus assumed
SMILES: CC[C@H](C)[C@H](N)C(=O)N[C@H](C(=O)N[C@@H](CC(C)C)C(=O)N[C@@H](CO)C(=O)N[C@@H](CC(C)C)C(=O)N[C@@H](CC(=O)O)C(=O)N[C@H](C(=O)N1CCC[C@H]1C(=O)N[C@H](C(=O)N[C@@H](CCCCN)C(=O)N[C@@H](CC(C)C)C(=O)N[C@@H](CCCCNC(=O)COCCOCCNC(=O)COCCOCCNC(=O)CC[C@H](NC(=O)CCCCCCCCCCCCCCCCC(=O)O)C(=O)O)C(=O)N[C@@H](CCC(N)=O)C(=O)N[C@H](C(=O)N[C@@H](CC(C)C)C(=O)N[C@@H](CC(C)C)C(=O)N[C@@H](CCCCN)C(=O)N[C@@H](CCC(N)=O)C(=O)N[C@@H](CCC(=O)O)C(=O)N[C@@H](CCCNC(=N)N)C(=O)N[C@@H](CCC(N)=O)C(=O)N[C@@H](CCCCN)C(=O)N[C@@H](CCCCN)C(=O)N[C@@H](CCC(N)=O)C(=O)N[C@@H](CCCNC(=N)N)C(=O)N[C@@H](CCC(=O)O)C(=O)N[C@@H](CCC(N)=O)C(=O)N[C@@H](C)C(=O)N[C@@H](CCC(=O)O)C(=O)N[C@@H](CCCCN)C(=O)N[C@@H](CC(N)=O)C(=O)N[C@@H](CCCCN)C(=O)N[C@@H](CCC(N)=O)C(=O)N[C@H](C(=O)N[C@@H](CC(C)C)C(=O)N[C@@H](CCC(=O)O)C(=O)N[C@@H](CCC(N)=O)C(=O)N[C@H](C(N)=O)C(C)C)[C@@H](C)CC)[C@@H](C)CC)[C@@H](C)CC)C(C)C)C(C)C

Molecular target: human corticotropin-releasing factor 2α (CRF2 α receptor) (human), Q13324
Assay: cell-based or functional assay

human corticotropin-releasing factor 2α (CRF2 α receptor) (human), Q13324, sequence (Q13324 20-411): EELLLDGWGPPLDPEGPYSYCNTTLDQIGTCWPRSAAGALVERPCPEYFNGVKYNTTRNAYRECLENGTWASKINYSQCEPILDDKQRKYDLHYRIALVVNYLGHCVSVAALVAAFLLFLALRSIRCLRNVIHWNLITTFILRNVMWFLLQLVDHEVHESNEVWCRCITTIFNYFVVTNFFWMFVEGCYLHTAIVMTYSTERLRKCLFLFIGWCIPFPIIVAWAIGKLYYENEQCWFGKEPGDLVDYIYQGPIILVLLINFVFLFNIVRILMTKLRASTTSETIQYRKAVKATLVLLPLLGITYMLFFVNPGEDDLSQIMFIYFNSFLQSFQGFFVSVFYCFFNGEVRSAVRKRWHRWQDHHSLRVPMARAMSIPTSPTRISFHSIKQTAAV

Row | Binder | EC50 [nM], 0% HSA [nM] | EC50 [nM], 0.1% HSA [nM]
1 | B1 | 0.13 | 4.97
2 | B2 | 1.27 | 61.1
